Common to all, as to assay: SPR, TREM-1 variant captured by anti-His, Fab as analyte
The target of assay [1] is T1, cynomolgus TREM-1 partly humanised with back mutation 4 (construct 0243) (cynomolgus monkey).
T1 construct: Printed R52R = R52 kept
T1 chain: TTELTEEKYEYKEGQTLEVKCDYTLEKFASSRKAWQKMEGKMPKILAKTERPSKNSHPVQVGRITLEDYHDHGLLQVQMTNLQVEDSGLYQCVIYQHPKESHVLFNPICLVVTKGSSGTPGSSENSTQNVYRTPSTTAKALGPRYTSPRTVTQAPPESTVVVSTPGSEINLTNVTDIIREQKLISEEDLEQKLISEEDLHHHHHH
The protocol: (§1) Binding studies were performed on a ProteOn Analyzer that measures molecular interactions in real time through surface plasmon resonance. Experiments were run at 25° C. and the samples were stored at 15° C. in the sample compartment. The signal (RU, response units) reported by the ProteOn is directly correlated to the mass on the individual sensor chip surfaces in six parallel flow cells. Anti-His monoclonal antibody was immobilised onto 6 parallel flow cells of a GLM sensor chip using a 1:1 mixture of 0.4 M EDAC [1-ethyl-3-(3-dimethylaminopropyl) carbodiimide hydrochloride] and 0.1 M Sulfo-NHS [N-hydroxysulfosuccinimide]. […] Immobilisation was performed with all steps in horizontal direction. […] Cell culture medium from HEK 293 cells expressing wild type or different mutated variants of human or cynomolgus TREM-1 ECD was diluted 40-60 times in running buffer (10 mM HEPES, 150 mM NaCl, 3 mM EDTA, 0.05% surfactant P20, pH 7.4). TREM-1 proteins were injected over immobilised anti-His capture antibody in the vertical direction at 30 μl/min for 60 s. […] Each Fab was injected over parallel flow cells in the horizontal direction to allow for kinetic analysis of binding to TREM-1 variants captured by anti-His antibody. Prior to injection each Fab was diluted to 0, 5.5 (in one experiment), 16.7 and 50 nM in running buffer, and injected at 100 μl/min for 250 s (association time). The dissociation time following these injections was monitored for 10 minutes. The GLM chip was regenerated after each interaction cycle of TREM-1 and Fab via two 18 s injections of 10 mM Glycine and 50 mM NaOH at 100 μl/min. This regeneration step removed the TREM-1 variants and any bound Fab from the anti-His antibody surface, and allowed for the subsequent binding of the next interaction pair.

Assay [2] has as its target T2, cTREM-1-Cmyc2-His6 (construct 0238), cynomolgus TREM-1 wt (cynomolgus monkey).
T2 construct: ECD with C-terminal cmyc2-His6 tag; also called wt cTREM-1
T2 chain: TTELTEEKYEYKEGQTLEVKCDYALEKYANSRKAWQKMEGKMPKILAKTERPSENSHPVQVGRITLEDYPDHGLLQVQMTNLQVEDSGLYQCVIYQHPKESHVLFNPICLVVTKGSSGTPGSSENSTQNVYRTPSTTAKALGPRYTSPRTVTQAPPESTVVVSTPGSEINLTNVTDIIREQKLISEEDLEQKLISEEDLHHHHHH
The method, then: as §1

The target of assay [3] is T3, A24T/Y28F/N30S/R32Q/E54K-cTREM-1-Cmyc2-His6 (construct 0245), partly humanised with back mutation 6 (cynomolgus monkey).
T3 construct: the entry already carries the mutations
T3 chain: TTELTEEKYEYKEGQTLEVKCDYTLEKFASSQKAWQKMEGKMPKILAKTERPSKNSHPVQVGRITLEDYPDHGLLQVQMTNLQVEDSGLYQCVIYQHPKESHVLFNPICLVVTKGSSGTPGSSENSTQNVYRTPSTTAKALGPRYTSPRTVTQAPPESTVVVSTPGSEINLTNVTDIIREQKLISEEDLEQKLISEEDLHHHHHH
The method, then: as §1

The target of assay [4] is T4, A24T/Y28F/N30S/R32Q/P70H-cTREM-1-Cmyc2-His6 (construct 0244), partly humanised with back mutation 5 (cynomolgus monkey).
T4 construct: the entry already carries the mutations
T4 chain: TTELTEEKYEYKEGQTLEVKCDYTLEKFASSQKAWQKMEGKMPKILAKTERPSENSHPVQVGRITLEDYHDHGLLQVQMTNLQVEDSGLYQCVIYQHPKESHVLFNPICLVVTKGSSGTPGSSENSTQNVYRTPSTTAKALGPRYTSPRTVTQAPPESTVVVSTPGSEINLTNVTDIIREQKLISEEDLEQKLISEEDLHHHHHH
The protocol:
as §1

For assay [5], the target named is T5, cynomolgus TREM-1 partly humanised with back mutation 1 (construct 0240) (cynomolgus monkey).
T5 construct: Printed A44A = A44 kept
T5 chain: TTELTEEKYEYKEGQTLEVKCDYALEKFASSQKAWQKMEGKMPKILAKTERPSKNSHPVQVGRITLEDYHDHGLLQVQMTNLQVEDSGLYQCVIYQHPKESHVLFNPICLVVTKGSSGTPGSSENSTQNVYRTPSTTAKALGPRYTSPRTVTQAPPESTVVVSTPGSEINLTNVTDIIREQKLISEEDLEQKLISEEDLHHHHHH
The protocol:
as §1

Assay [6] concerns the target T6, cynomolgus TREM-1 partly humanised (construct 0239) (cynomolgus monkey).
T6 chain: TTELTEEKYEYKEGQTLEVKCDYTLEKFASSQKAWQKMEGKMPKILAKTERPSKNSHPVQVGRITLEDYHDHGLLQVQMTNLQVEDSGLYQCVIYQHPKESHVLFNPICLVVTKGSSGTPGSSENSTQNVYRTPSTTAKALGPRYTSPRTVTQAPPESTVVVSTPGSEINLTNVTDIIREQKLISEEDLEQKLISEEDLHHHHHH
The method, then: as §1

For assay [7], the target named is T7, cynomolgus TREM-1 partly humanised with back mutation 3 (construct 0242) (cynomolgus monkey).
T7 construct: Printed N50N = N50 kept
T7 chain: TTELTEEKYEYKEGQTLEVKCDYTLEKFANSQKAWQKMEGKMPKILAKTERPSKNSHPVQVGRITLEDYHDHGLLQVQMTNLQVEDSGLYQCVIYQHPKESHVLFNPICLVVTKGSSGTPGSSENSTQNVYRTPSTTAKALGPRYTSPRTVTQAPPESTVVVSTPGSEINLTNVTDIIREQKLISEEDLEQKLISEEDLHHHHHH
The method, then: as §1

Assay [8] addresses T8, cynomolgus TREM-1 partly humanised with back mutation 2 (construct 0241) (cynomolgus monkey).
T8 construct: Printed Y48Y = Y48 kept
T8 chain: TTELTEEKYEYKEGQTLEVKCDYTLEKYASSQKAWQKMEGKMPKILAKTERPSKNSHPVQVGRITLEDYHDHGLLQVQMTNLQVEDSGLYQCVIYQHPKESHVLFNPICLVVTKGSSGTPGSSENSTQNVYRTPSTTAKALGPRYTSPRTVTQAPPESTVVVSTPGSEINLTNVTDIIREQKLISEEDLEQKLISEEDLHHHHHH
The protocol:
as §1

B1: Fab region of mAb 0170 (Fab, V domains shown)
VH: EVQLVESGGGLVQPGGSLKLSCAASGFTFSTYAMHWVRQASGKGLEWVGRIRTKSSNYATYYAASVKGRFTISRDDSKNTAYLQMNSLKTEDTAVYYCTRDMGIRRQFAYWGQGTLVTVSS
VL: DIVLTQSPDSLAVSLGERATINCRASESVDTFDYSFLHWYQQKPGQPPKLLIYRASNLESGVPDRFSGSGSGTDFTLTISSLQAEDVAVYYCQQSNEDPYTFGQGTKLEIKR
notes: also called 0170 Fab; Fab 0170
For the molecule B1, in assay [1], the binding result was “no binding (tested: up to 50 nM Fab)”. The Kd stood at 1 nM in assay [2]; 1 nM in assay [3]; 1 nM in assay [4]; 2 nM in assay [5]; 2 nM in assay [6]; 1 nM in assay [7]. The Kd in assay [8] was found to be 2 nM.

The values are drawn from patent US20170190775A1 (published 2017).
